Patent US8492329B2, “Bioactive peptides and methods of using same” (Compugen Ltd., priority 2007, dated 2013)
Entries after “also recorded” stand apart in the source; their conditions may differ. No end group written: not given here.

Legend:
LGR4 = target: T1, LGR4 (Homo sapiens, UniProt Q9BXB1); assay: cAMP accumulation in CHO-K1 cells transiently transfected with LGR4; type: cell-based; details: 1 uM, pre-treatment with Forskolin, FIG. 3C
T1 construct: expressed in transfected cells; host or cells: CHO-K1 (transient)
Description: [The procedure below names another target; the source says it served here with some conditions changed.] (§1) LGR7 (RXFP1) or LGR8 (RXFP2) were transiently transfected into CHO-K1 cells as follows: Cells (12 million) were plated into T75 flasks on the day preceding transfection. Cells were transfected with a GPCR DNA and Gα16 using a lipid technique according to the manufacturer's recommendation. Cells were transfected for 5 hours, then re-plated into 96-well dishes (60,000 cells per well) and grown overnight. Transfected cells were plated into 24 wells of a 96-well plate. Cells were pre-treated with 0.5 mM IBMX (stimulation buffer) for 10 min at 37° C., then stimulated with either a positive control (Relaxin 2) or a candidate peptide (for Gs functional examination), followed by stimulation or a preincubation with 10 μM forskolin (for Gi functional examination). Following a 20 minutes stimulation by incubation with 1 μM of either positive control or the tested peptides, either with or without forskolin, intracellular cAMP was assayed using the Hit Hunter cAMP kit (DiscoveRx Corporation) according to the manufacturer's recommended protocol. Data was converted to nmol of cAMP by running a standard cAMP curve.

LGR5 = target: T2, LGR5 (Homo sapiens, UniProt O75473); assay: cAMP accumulation in CHO-K1 cells transiently transfected with LGR5; type: cell-based; details: 1 uM, pre-treatment with Forskolin, FIG. 3B
T2 construct: expressed in transfected cells; host or cells: CHO-K1 (transient)
T2 sequence (O75473 22-907): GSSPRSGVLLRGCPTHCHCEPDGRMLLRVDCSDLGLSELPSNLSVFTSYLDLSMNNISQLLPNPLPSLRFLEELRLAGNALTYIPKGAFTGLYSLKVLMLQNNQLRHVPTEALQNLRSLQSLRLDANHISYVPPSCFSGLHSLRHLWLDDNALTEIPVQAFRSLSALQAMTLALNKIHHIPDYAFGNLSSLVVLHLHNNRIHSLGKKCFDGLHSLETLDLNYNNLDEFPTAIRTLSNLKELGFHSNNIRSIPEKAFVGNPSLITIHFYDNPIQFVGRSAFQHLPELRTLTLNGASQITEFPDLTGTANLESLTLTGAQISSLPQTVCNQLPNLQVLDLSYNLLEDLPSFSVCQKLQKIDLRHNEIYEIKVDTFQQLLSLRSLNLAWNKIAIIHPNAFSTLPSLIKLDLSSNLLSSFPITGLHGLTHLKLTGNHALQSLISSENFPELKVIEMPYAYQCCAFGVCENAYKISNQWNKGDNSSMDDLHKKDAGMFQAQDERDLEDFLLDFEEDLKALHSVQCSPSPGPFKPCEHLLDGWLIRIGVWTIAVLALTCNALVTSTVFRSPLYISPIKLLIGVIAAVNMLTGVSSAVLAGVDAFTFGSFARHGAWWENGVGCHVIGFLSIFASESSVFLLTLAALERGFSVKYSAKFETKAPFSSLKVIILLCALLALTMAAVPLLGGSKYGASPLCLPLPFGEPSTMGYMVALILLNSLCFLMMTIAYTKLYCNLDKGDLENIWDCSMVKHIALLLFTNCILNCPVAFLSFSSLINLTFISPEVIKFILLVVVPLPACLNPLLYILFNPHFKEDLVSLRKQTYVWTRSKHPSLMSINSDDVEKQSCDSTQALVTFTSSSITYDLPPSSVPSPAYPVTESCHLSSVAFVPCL
Description: [The procedure below names another target; the source says it served here with some conditions changed.] as §1

Substance | Gi effect (decrease in cAMP accumulation) (LGR4) | Gi effect (decrease in cAMP accumulation) (LGR5)
GQKGQVGPPGAAVRRAYAAFSV [Peptide P59C13V] | slight yet statistically significant Gi effect; also recorded: slight Gi activation | significant Gi effect; also recorded: slight Gi activation
GQKGQVGPPGAAVRRAYAAFSVGRRAYAAFSV-OH [Peptide P74C13V] | slight yet statistically significant Gi effect; also recorded: slight Gi activation | significant Gi effect; also recorded: slight Gi activation
